Results taken from publication PMC7125023.

Molecular target: anti-RSV 2Fc mAb (dual Fc human IgG1, clone B21M variable regions) (human)
Test: SPR

Kd | stoichiometry N | Substance
1.82 nM | 2.12 FcR:mAb | human FcγRI (from UniProt P12314 16-292) (receptor)
121 nM | 4.17 FcR:mAb | human neonatal Fc receptor (FcRn) (from UniProt P55899 24-297)
